Two molecules from patent publication US20180194839A1 (Novartis, published 2018) can be followed below.

Holding throughout (test): ELISA, coated cytokine, Ab 10 µg/ml
Assay [1] concerns the target T1, recombinant human EGF (Sigma Cat#E9644) (human, UniProt P01133 971-1023).
T1 construct: also called huEGF

Assay [2] addresses T2, recombinant human TNFα (Novartis) (human, UniProt P01375 77-233).
T2 construct: also called huTNFα

The target in assay [3] is T3, recombinant human TGFβ2 (Novartis) (human, UniProt P61812 303-414).
T3 construct: also called huTGFβ2
T3 sequence (looked up): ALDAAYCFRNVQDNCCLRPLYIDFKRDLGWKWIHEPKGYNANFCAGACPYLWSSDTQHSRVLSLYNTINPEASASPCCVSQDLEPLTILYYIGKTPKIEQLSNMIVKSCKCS

Assay [4] deals with T4, recombinant human IL-3 (R&D Systems Cat#203-IL/CF) (human, UniProt P08700 20-152).
T4 construct: also called huIL-3
T4 sequence (looked up): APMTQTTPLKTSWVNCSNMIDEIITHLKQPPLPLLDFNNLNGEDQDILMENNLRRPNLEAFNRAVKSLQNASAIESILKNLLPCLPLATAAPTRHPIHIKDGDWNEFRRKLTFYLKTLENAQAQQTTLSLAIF

Assay [5] has as its target T5, recombinant human IL-12 (R&D Systems Cat#219-IL-005/CF) (human, UniProt P29459 23-219; P29460 23-328).
T5 construct: also called huIL-12
T5 sequence (looked up) 1: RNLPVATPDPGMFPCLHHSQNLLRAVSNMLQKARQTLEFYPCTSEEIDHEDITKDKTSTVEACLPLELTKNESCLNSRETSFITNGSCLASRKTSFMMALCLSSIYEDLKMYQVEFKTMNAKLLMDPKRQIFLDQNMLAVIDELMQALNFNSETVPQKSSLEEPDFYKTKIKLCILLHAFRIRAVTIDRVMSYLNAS
T5 sequence (looked up) 2: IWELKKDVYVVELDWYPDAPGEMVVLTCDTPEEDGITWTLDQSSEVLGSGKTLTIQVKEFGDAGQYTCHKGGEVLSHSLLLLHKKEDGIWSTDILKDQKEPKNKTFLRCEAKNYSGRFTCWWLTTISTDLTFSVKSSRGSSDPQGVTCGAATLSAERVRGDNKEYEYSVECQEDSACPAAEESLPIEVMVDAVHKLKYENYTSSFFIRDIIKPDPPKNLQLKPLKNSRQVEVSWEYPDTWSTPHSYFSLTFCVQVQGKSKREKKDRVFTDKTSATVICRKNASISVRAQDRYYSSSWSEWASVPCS

In assay [6] the target is T6, recombinant human IL-17A/F heterodimer (human, UniProt Q16552 24-155; Q96PD4 31-163, limits assumed).
T6 construct: heterodimer of an IL-17A subunit and an IL-17F subunit; also called huIL-17A/F; rhuIL-17A/F
T6 sequence (looked up) 1: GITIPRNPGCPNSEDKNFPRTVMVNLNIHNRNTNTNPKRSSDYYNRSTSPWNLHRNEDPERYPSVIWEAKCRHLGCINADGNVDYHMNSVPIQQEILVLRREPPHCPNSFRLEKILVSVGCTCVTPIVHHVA
T6 sequence (looked up) 2: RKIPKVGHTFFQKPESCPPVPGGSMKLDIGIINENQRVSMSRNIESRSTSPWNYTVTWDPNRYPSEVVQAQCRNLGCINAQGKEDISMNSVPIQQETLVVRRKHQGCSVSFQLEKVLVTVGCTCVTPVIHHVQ

For assay [7], the target named is T7, recombinant human IL-6 (R&D Systems Cat#206-IL-1010/CF) (human, UniProt P05231 30-212).
T7 construct: also called huIL-6

Assay [8] addresses T8, recombinant human IL-20 (Novartis) (human, UniProt Q9NYY1 25-176, limits assumed).
T8 construct: also called huIL-20
T8 sequence (looked up): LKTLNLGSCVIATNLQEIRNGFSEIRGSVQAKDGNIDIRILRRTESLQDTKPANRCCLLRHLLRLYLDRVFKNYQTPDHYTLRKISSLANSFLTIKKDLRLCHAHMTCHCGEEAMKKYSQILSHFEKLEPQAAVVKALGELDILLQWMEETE

Assay [9] concerns the target T9, recombinant rat IL-4 (R&D Systems Cat#504-RL/CF) (rat, UniProt P20096 25-147, limits assumed).
T9 sequence (looked up): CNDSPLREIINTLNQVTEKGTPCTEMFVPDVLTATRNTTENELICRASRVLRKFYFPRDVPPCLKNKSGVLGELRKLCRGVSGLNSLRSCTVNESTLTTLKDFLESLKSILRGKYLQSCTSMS

For assay [10], the target named is T10, recombinant rat TNFα (R&D Systems Cat#510-RT/CF) (rat, UniProt P16599 80-235).
T10 sequence (looked up): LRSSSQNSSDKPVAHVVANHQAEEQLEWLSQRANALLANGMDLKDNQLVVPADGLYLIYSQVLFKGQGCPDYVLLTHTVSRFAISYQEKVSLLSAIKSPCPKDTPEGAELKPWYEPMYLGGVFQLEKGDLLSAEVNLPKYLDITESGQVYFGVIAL

The target in assay [11] is T11, recombinant rat IL-17A (SEQ ID NO: 85) (rat, UniProt Q61453 18-150).
T11 construct: also called rratIL-17A; rIL-17A
T11 sequence: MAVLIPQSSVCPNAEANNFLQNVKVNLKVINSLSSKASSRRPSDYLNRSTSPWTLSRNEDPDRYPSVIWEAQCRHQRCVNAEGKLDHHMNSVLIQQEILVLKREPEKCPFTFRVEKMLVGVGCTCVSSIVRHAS

The target in assay [12] is recombinant rat IL-23 (R&D Systems Cat#3136-RL-010/CF) (rat).
The target in assay [13] is recombinant rat IL-12 (R&D Systems Cat#1760-RL/CF) (rat).

T1 sequence (P01133 971-1023 limits assumed): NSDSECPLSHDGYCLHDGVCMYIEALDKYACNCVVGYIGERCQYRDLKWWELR
T2 sequence (P01375 77-233 limits assumed): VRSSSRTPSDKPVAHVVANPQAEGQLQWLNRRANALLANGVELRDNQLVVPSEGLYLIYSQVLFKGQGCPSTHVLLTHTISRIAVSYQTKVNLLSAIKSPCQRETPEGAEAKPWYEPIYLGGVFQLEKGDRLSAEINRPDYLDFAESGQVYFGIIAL

B1: XAB4 (antibody, human IgG1, kappa, V domains shown)
VH: EVQLVESGGDLVQPGGSLRLSCAASGFTFSSYWMSWVRQAPGKGLEWVANIKQDGSEKYYVDSVKGRFTISRDNAKNSLYLQMNSLRAEDTAVYYCARDRGSLYYWGQGTLVTVSS
VL: AIQLTQSPSSLSASVGDRVTITCRPSQGINWELAWYQQKPGKAPKLLIYDASSLEQGVPSRFSGSGSGTDFTLTISSLQPEDFATYYCQQFNSYPLTFGGGTKVEIKR
notes: also called MB435 N56Q
For B1, the O.D. amounted to 0.126 O.D in [1]; 0.009 O.D in assay [2]; 0.018 O.D in assay [3]; 0.167 O.D in assay [4]; 0.009 O.D in assay [5]; 3.1 O.D in assay [6]. Moreover, the O.D. in assay [7] is -0.015 O.D; in assay [8], 0.039 O.D; in assay [9], 0.026 O.D; in assay [10], 0.02 O.D; in [11] it was 3.48 O.D; in assay [12], 0.023 O.D. Besides, the O.D. in [13] worked out at 0.009 O.D.

B2: XAB1 (antibody, human IgG1, kappa, V domains shown)
VH: EVQLVESGGDLVQPGGSLRLSCAASGFTFSSYWMSWVRQAPGKGLEWVANIKQDGSEKYYVDSVKGRFTISRDNAKNSLYLQMNSLRAEDTAVYYCARDRGSLYYWGQGTLVTVSS
VL: AIQLTQSPSSLSASVGDRVTITCRPSQGIISALAWYQQKPGKAPKLLIYDASSLENGVPSRFSGSGSGTDFTLTISSLQPEDFATYYCQQFNSYPLTFGGGTKVEIKR
notes: human IgG1/kappa monoclonal antibody; also called parental XAB1; XAB1 IgG
Consider B2, for which the O.D. was 0.062 O.D in [1]; 0.289 O.D in assay [2]; 0.146 O.D in assay [3]; -0.049 O.D in [4]; -0.097 O.D in assay [5]; 2.64 O.D in [6]. Also, the O.D. is -0.044 O.D in [7]; 0.335 O.D in [8]; 0.017 O.D in assay [9]; 0.003 O.D in [10]; 1.2 O.D in assay [11]; 0.011 O.D in assay [12]. Further, the O.D. in assay [13] was -0.007 O.D.
